Reference: patent US9975943B2, “Polypeptides” (AFFIBODY AB, priority 2013, dated 2018)

Tests used:
[1] = Pharmacokinetic study in mice; type: in vivo, mouse; settings: male NMRI mice; i.v. 92 nmol/kg; serum; Z variants as fusions to PP013-Z03638
Experimental: Z11947, Z11946 and Z11948 fused to PP013-Z03638 were administered intravenously (i.v.) to male NMRI mice (Charles River, Germany) at a dose of 92 nmol/kg body weight. Sera from groups of three mice were obtained at 0.08, 6, 18, 78, 120, 168 and 240 hours. The concentration of respective Z variant was determined by ELISA.
Half-area 96-well ELISA plates were coated at 4° C. overnight with 50 μl/well of an Z specific goat antibody (produced in-house) diluted to 4 μg/ml in coating buffer (50 mM sodium carbonate, pH 9.6). The antibody solution was poured off and the wells were blocked with 100 μl of PBSC for 1.5 h at RT. The sera were diluted in PBSC plus 1% mouse serum (matrix) from 1:100 to 1:51,200 in a two-fold dilution series in a dilutions plate. […] Bound Z variants were detected with 50 μl/well of rabbit anti-PP013 Ig (produced in-house) diluted to 4 μg/ml in PBSC. […] After 15 minutes of development, the absorbance was measured at 450 nm using a multi-well plate reader (Victor^3). The absorbance values were analyzed using GraphPad Prism 5 to determine the concentrations (cubic-spline curve fit) and area under curve (AUC). […] The resulting curves followed a two compartment model and the terminal half-life was calculated as In2 divided by the slope based on the last three time points.

human FcRn = human FcRn (Homo sapiens, UniProt P55899); experiment: Biacore analysis of Z variants fused to PP013-Z03638; type: binding; design: made in house; host or cells: human SKOV-3 cells, lentivirally transduced, secreted; purified on immobilized human IgG; settings: pH 6.0; 40, 160 and 640 nM
Experimental: Expressed and purified Z variants fused to PP013-Z03638 were assayed against human FcRn at pH 6.0 essentially as described for the kinetic analysis in Example 3. The Z variants and the negative control Z03638-PP013 were injected at 40 nM, 160 nM and 640 nM during 1 minute followed by dissociation for 2.5 minutes and equilibration for 1 minute. Kinetic constants and affinities were determined for the Z variants using the BiaEvaluation software.

binding to FcRn (human FcRn): negative against FcRn
Substance: Z03638-PP013: negative control molecule [Z03638]-GAP(G4S)4TS-[PP013]; Taq polymerase binding Z variant fused to albumin binding polypeptide
terminal half-life [1]: approximately 43 hours
